Positions count from the first letter of the chain named.
T1: human ADAMTS5 (human, UniProt Q9UNA0 262-622, limits assumed)
T1 sequence: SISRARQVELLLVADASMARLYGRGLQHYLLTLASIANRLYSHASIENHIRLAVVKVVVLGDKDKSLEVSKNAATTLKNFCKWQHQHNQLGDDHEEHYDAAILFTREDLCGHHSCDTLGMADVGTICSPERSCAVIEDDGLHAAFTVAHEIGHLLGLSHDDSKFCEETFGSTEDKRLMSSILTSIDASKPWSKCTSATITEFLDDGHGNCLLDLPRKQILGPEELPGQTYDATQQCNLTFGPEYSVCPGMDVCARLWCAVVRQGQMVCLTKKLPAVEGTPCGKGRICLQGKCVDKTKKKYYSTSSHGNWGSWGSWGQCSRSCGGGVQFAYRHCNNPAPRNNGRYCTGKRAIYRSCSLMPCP

T2: Human ADAMTS1 (human, UniProt Q9UHI8 253-967, limits assumed)
T2 sequence (looked up): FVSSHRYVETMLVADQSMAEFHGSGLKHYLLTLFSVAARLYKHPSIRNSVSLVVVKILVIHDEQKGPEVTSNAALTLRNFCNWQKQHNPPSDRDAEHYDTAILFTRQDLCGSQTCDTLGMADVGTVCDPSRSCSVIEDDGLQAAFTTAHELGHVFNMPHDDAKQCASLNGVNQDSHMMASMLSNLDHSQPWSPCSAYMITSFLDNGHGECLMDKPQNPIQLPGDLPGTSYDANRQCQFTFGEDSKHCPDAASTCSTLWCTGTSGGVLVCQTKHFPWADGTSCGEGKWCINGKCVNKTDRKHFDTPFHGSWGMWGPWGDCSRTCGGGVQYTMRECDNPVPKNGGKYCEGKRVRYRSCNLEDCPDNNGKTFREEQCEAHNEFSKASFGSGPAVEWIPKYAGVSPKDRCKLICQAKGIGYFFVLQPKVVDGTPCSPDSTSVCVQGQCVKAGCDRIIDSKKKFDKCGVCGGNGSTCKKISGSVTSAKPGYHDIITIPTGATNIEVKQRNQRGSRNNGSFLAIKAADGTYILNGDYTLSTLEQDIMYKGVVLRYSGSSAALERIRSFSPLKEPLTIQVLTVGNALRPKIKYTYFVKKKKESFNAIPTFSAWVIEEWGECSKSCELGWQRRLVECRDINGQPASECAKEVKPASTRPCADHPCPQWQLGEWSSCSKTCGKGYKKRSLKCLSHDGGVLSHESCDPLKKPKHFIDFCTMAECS

T3: Human ADAMTS4 (human, UniProt O75173 213-685, limits assumed)
T3 construct: also called aggrecanase-1
T3 sequence: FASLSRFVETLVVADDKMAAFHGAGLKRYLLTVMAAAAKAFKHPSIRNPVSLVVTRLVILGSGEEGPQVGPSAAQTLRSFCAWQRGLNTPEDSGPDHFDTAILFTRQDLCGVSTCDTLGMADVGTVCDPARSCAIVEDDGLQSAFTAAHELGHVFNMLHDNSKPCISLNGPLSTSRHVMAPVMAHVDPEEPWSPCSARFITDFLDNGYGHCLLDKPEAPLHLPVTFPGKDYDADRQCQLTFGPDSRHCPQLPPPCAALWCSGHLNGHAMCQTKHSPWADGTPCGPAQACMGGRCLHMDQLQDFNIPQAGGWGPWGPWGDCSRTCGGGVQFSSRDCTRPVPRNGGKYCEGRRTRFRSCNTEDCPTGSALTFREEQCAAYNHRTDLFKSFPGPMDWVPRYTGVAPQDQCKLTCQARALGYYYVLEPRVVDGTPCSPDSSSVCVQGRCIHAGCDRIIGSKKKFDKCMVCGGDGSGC

T4: Human ADAMTS13 (human, UniProt Q76LX8 75-685, limits assumed)
T4 sequence (looked up): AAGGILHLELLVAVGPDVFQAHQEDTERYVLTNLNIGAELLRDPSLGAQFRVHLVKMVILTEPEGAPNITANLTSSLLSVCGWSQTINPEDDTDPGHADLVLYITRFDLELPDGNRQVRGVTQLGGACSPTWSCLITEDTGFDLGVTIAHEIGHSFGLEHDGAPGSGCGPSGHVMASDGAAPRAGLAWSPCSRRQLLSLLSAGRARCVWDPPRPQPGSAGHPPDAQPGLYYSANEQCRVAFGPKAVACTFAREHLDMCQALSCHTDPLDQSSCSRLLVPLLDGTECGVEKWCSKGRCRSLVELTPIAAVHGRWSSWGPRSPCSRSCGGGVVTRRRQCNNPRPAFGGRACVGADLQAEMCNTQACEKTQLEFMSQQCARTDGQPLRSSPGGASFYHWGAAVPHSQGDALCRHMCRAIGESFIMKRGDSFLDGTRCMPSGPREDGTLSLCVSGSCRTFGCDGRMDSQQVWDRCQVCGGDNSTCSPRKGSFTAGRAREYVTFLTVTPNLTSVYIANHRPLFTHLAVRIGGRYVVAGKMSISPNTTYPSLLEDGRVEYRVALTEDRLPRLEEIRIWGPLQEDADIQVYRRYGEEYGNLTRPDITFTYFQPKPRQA

T5: Human MMP1 (human, UniProt P03956 20-469, limits assumed)
T5 sequence (looked up): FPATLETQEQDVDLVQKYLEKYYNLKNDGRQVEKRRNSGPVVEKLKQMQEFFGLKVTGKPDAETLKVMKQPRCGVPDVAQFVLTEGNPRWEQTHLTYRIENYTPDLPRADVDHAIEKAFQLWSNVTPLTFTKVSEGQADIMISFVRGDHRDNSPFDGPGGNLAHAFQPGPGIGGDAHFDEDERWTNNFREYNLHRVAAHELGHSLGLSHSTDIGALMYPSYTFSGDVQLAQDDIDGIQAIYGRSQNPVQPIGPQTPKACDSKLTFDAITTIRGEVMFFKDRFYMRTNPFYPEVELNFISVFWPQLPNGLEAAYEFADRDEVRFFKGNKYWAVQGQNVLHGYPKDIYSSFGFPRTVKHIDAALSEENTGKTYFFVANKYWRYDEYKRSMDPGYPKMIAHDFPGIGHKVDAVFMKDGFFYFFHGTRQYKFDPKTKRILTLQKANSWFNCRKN

B1: 12F4.1H7 (antibody, IgG2, V domains shown)
VH: EVKLEESGGGLVQPGGSMKLSCTASGFTFSDAWMDWVRQSPEKGLEWVAEIRHKANDHAIFYDESVKGRFTISRDDSKNIVYLQMNSLRPEDTGIYYCTSPFAYWGQGTLVTVSA
VL: DIVMTQSQKFMSVTVGDRVSITCKASQSVGTTIVWYQQKPGQSPKLLIYSASNRHTGVPDRFTGSGSGTDFILTINNVQSEDLADYFCQQYTSYPFTFGSGTKLEIKR
notes: also called Murine 12F4.1H7
B2: BPC1623 (antibody, human IgG1, kappa, V domains shown)
VH: B1 VH with A115S
VL: B1 VL
notes: Chimeric: murine variable domains on human gamma 1 and kappa constant regions; also called 12F4 Chimera; Chimeric 12F4.1H7
B3: 3A12.1D7 (antibody, V domains shown)
VH: B1 VH with L4F, T23A, T28I, H58Y, N79S, S87N
VL: B1 VL with N76S, T92S
notes: Murine monoclonal antibody from a hybridoma
B4: 5F10.1H6 (antibody, V domains shown)
VH: B1 VH with T23A, N79S
VL: B1 VL with K9R, N53T, H55Y, S65G, T92S
notes: as for B3
B5: 2D3.1D4 (antibody, V domains shown)
VH: EVKLEESGGGLVQPGGSMKLSCAASGITFSDAWMDWVRQSPEKGLEWVADIRNTANNHATFYAESVKGRFTISRDDSKSTVYLQMNTLRPEDTGIYYCTSPFAYWGQGTLVTVSA
VL: DIVMTQSQKFMSTTVGDRVSITCKASQNVGTAVVWFQQKPGQSPKLLIYSASNRYTRVPDRFTGSGSGTDFTLTISNVQSEDLADYFCQQYVNYPFTFGSGTKLEIKR
notes: as for B3
B6: BPC1622 (antibody, human IgG1, kappa, V domains shown)
VH: EVKLEESGGGLVQPGGSMKLSCAASGFTSSDAWMDWVRQSPEKGLEWVAEIRNKANNHARHYAESVKGRFTISRDDSKSSVYLQMNSLRAEDSGIYYCTRTYYYGSSYGYCDVWGTGTLVTVSS
VL: DIQMTQSPASLSASVGETVTITCRTSENIYSYLAWYQQKQGKSPQLLVYNAKTLAEGVPSRFSGSGSGTQFSLKINSLQPEDFGSYSCQHHYGTPWTFGGGTKLEIKR
notes: Chimeric: murine variable domains on human gamma 1 and kappa constant regions; also called 7B4 Chimera; Chimeric 7B4.1E11

Tests used:
human ADAMTS5 [1] = biological target: T1, human ADAMTS5; assay: cell-based or functional assay
human ADAMTS5 [2] = biological target: T1, human ADAMTS5; assay: Octet QK, purified mAb
human ADAMTS5 [3] = biological target: T1, human ADAMTS5; assay: Octet QK, purified murine mAb
human ADAMTS5 [4] = biological target: T1, human ADAMTS5; assay: Biacore, mAb down, no avidity
Human MMP3 = Human MMP3 (human, UniProt P08254 18-477, limits assumed); assay: celTRF and Octet QK cross-reactivity
Human MMP9 = Human MMP9 (human, UniProt P14780 20-707, limits assumed); assay: celTRF and Octet QK cross-reactivity
Human MMP13 = Human MMP13 (human, UniProt P45452 20-471, limits assumed); assay: celTRF and Octet QK cross-reactivity
Human ADAMTS1 = biological target: T2, Human ADAMTS1; assay: celTRF and Octet QK cross-reactivity
Human ADAMTS4 = biological target: T3, Human ADAMTS4; assay: celTRF and Octet QK cross-reactivity
Human ADAMTS13 = biological target: T4, Human ADAMTS13; assay: celTRF and Octet QK cross-reactivity
Human MMP1 = biological target: T5, Human MMP1; assay: celTRF and Octet QK cross-reactivity
human ADAMTS5 [5] = biological target: T1, human ADAMTS5; assay: Octet QK, antigen down, incl avidity
human ADAMTS5 [6] = biological target: T1, human ADAMTS5; assay: Biacore, purified mAb captured on anti-human IgG, ADAMTS5 (R&D 2198-AD) at 64 nM, 1:1 fit
Description: (§1) Anti-human IgG (Biacore™, BR-1008-39) was immobilized on a CM5 chip by primary amine coupling. This surface was then used to capture the humanized antibodies, ADAMTS5 (R&D Systems 2198-AD) was then passed over the captured antibody at a single concentration of 64 nM, regeneration was carried out using 100 mM phosphoric acid followed by 3M MgCl₂. The binding curves were double referenced with buffer injection (i.e. 0 nM) and the data was fitted to the T100 analysis software using the 1:1 model. The run was carried out at 25° C., using HBS-EP as the running buffer. All antibodies were captured from tissue culture supernatants unless specified.

human ADAMTS5 [7] = biological target: T1, human ADAMTS5; assay: Biacore, mAb from culture supernatant captured on anti-human IgG, ADAMTS5 (R&D 2198-AD) at 64 nM, 1:1 fit
Description: as §1

Chain of Human MMP9 (P14780 20-707 limits assumed): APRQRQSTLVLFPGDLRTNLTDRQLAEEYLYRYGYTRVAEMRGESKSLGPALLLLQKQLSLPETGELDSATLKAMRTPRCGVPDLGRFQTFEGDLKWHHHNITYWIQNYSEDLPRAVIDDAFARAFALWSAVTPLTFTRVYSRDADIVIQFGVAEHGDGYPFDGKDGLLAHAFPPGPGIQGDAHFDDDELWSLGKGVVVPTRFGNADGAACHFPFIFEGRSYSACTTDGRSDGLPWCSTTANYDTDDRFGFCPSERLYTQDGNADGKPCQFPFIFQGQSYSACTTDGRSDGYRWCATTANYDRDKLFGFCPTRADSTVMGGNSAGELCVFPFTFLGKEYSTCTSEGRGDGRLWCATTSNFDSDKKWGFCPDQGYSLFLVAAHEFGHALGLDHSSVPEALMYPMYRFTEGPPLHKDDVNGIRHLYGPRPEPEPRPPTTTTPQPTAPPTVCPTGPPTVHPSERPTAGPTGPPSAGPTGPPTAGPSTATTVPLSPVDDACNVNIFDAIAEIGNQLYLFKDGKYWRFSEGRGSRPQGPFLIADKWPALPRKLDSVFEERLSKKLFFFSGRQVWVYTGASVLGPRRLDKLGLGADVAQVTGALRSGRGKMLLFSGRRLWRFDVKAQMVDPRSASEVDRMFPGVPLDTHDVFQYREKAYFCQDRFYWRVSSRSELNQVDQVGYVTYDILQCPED
Chain of Human MMP3 (P08254 18-477 limits assumed): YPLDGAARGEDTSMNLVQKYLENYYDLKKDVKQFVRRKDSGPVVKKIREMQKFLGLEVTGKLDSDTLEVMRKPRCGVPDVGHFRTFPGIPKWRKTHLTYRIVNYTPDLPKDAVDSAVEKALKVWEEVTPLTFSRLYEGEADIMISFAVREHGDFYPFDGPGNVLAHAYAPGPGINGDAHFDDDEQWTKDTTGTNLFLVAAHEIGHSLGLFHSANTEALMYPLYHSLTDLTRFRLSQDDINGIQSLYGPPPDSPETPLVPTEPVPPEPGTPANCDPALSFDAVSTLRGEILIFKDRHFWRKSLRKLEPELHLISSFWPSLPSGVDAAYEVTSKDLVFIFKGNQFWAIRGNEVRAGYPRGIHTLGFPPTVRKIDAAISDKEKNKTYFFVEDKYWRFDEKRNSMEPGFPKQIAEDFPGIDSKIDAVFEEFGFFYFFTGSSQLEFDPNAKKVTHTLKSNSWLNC

| Aggrecan Substrate Cleavage Neutralization IC50 (human ADAMTS5 [1]) | Kd (human ADAMTS5 [2]) | Kd (human ADAMTS5 [3]) | Kd (human ADAMTS5 [4]) | binding result (Human MMP3) | binding result (Human MMP9) | binding result (Human MMP13) | binding result (Human ADAMTS1) | binding result (Human ADAMTS4) | binding result (Human ADAMTS13) | binding result (Human MMP1) | Kd (human ADAMTS5 [5]) | Kd (human ADAMTS5 [6]) | koff (human ADAMTS5 [6]) | kon (human ADAMTS5 [6]) | Kd (human ADAMTS5 [7]) | koff (human ADAMTS5 [7]) | kon (human ADAMTS5 [7]) | Binder |
| --- | --- | --- | --- | --- | --- | --- | --- | --- | --- | --- | --- | --- | --- | --- | --- | --- | --- | --- |
| 60 pM | 68.5 pM | 436 pM | 67 pM | no binding | no binding | no binding | no binding | no binding | no binding | no binding | 35.6 pM |  |  |  |  |  |  | B1 |
|  | 79.9 pM |  | 51 pM |  |  |  |  |  |  |  | 43.1 pM | 72.7 pM | 4.7e-05 s⁻¹ | 646000 M⁻¹ s⁻¹ | 77.4 pM | 4.82e-05 s⁻¹ | 623000 M⁻¹ s⁻¹ | B2 |
| 769 pM |  | 82.4 pM |  | no binding | no binding | no binding | no binding | no binding | no binding | no binding |  |  |  |  |  |  |  | B3 |
| 50 pM |  | 126 pM |  | no binding | no binding | no binding | no binding | no binding | no binding | no binding |  |  |  |  |  |  |  | B4 |
| 31 pM |  | 86.2 pM |  | no binding | no binding | no binding | no binding | no binding | no binding | no binding |  |  |  |  |  |  |  | B5 |
|  | 345 pM |  | 473 pM |  |  |  |  |  |  |  | 260 pM | 1210 pM | 0.00106 s⁻¹ | 872000 M⁻¹ s⁻¹ | 1120 pM | 0.0013 s⁻¹ | 1.16e+06 M⁻¹ s⁻¹ | B6 |
